Experimental data from paper PMC5798601 (Cell, 2017).
Blank lines part the entries; values can stand above or below the molecule they belong to.

Key:
[1] = biological target: 32P-labeled mtRNAP (Figure 5C; truncation not stated) (human) (UniProt O00411); assay: cross-linking
[2] = biological target: Δ150 mtRNAP (human mitochondrial RNA polymerase) (human, UniProt O00411 151-1230); assay: crystal structure
crystal structure = biological target: the molecule itself; assay: crystal structure
[3] = biological target: mtRNAP Δ150;TEFM Δ135 (CTD + linker) (human;human, UniProt O00411;Q96QE5 151-1230;136-360, |); assay: crystal structure
Sequence of mtRNAP Δ150;TEFM Δ135 (CTD + linker) (O00411 151-1230, stated change not applied, one chain of several): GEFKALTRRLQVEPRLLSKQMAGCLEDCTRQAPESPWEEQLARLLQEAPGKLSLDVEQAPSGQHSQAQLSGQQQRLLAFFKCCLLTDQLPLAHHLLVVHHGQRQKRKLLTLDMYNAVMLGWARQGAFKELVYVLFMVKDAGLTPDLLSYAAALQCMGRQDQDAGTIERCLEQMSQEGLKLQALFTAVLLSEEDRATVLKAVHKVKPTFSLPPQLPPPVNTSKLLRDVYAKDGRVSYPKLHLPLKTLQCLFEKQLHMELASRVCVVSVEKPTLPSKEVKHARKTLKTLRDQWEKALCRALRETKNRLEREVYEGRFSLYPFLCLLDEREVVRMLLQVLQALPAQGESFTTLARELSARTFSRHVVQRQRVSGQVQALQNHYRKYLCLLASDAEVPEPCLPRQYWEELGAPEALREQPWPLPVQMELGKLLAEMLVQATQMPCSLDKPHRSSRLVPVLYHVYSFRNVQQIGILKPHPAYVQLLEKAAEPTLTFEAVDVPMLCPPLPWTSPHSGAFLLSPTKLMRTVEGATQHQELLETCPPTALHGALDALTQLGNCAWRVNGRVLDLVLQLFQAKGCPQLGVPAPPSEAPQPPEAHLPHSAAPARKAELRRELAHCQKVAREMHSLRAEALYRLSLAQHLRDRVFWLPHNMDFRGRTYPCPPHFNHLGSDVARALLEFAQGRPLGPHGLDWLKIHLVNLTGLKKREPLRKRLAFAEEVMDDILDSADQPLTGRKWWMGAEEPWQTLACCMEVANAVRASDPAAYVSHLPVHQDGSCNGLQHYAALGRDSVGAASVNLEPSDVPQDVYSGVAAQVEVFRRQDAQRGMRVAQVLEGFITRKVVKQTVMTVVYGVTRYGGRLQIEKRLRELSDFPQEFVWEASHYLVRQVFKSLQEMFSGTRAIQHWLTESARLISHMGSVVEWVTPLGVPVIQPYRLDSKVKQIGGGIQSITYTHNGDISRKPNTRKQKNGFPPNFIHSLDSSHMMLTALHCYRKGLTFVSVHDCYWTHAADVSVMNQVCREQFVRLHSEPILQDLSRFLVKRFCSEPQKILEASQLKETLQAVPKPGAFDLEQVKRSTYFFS

mtRNAP Δ150;TEFM WT = mtRNAP Δ150;TEFM WT (human;human, UniProt O00411;Q96QE5 151-1230;36-360, |); assay: size exclusion chromatography
Sequence of mtRNAP Δ150;TEFM WT (O00411 151-1230, stated change not applied, one chain of several): as above

610Bpa-mtRNAP (human) = 610Bpa-mtRNAP (human) (UniProt O00411); assay: cross-linking
Sequence of 610Bpa-mtRNAP (human) (O00411 42-609): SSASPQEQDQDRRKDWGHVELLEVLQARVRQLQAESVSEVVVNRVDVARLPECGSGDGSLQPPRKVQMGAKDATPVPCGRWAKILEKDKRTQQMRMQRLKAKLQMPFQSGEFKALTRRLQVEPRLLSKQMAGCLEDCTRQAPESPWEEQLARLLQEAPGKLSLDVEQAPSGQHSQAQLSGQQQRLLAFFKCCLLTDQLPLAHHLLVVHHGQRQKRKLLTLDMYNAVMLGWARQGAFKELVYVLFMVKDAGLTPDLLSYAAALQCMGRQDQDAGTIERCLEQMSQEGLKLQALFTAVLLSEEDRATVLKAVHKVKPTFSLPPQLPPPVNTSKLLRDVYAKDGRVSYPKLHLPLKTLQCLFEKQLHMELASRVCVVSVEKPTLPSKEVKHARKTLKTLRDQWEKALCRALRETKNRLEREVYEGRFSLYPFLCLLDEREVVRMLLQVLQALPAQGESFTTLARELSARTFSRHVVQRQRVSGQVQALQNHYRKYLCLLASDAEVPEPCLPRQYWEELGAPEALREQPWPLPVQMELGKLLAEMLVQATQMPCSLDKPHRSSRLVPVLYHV

SEC = biological target: the molecule itself; assay: SEC

Sequence of 32P-labeled mtRNAP (Figure 5C; truncation not stated) (human) (O00411 42-1230): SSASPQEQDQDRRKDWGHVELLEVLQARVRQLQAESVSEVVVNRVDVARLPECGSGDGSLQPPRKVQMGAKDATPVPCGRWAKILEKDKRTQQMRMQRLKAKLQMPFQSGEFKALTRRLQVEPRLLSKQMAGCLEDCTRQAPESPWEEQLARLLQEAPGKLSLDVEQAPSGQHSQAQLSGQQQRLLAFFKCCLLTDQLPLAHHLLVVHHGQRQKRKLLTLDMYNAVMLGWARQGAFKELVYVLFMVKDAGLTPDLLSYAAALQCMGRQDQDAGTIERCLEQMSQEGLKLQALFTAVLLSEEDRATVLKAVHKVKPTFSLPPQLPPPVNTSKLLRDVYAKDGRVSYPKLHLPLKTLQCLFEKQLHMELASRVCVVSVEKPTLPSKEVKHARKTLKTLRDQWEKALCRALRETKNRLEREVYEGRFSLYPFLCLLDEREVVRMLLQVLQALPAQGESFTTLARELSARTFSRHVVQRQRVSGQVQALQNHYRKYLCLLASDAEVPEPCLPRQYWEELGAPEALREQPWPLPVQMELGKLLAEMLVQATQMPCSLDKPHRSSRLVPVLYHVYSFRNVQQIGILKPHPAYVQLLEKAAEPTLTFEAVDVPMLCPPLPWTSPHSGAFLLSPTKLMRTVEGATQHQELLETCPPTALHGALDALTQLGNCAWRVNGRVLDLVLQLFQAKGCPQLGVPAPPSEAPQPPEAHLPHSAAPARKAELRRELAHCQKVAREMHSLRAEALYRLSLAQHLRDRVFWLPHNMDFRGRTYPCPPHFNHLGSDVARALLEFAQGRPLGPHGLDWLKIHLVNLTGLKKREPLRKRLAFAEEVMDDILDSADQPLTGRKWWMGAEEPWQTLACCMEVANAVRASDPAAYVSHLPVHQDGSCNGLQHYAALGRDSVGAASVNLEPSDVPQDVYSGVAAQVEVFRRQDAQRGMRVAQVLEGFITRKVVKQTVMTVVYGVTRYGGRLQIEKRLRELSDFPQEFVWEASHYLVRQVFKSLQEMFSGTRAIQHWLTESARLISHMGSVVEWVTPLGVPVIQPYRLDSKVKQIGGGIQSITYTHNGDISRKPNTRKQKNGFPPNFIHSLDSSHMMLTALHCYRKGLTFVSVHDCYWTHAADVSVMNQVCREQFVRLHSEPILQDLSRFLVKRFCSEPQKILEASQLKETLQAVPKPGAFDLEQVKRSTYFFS
Sequence of Δ150 mtRNAP (human mitochondrial RNA polymerase) (O00411 151-1230, stated change not applied): as the sequence (O00411 151-1230, stated change not applied, one chain of several) above

Molecule: Bpa308 TEFM (from UniProt Q96QE5 36-360) (natural protein)
- cross-linking efficiency [1]: > 30%

Molecule: Bpa309 TEFM (from UniProt Q96QE5 36-360) (natural protein)
- cross-linking efficiency [1]: > 30%

B2: EC scaffold NT25HH/TS22HH/RNA14mt (mixed)
DNA 1: GAACATGGTGTAATTATTTCGACGCCAGACGAAC
DNA 2: GTTCGTCTGGCGTGCGCGCCGCTACACCATGTTC
RNA: AGUCUGCGGCGCGC
- binding result [3]: binds

B3: cross-linking scaffold NT19HH/TS16HH/RNA14HH (mixed)
DNA 1: CATGGGGTAACTAGTTCGACGCCAGACG
DNA 2: CGTCTGGCGTGATCACGACTACCCCATG
RNA: UGAUGGUAAUGCUCCUGUCGUGAUC
- binding result (mtRNAP Δ150;TEFM WT): binds

B4: 32P-labeled TEFM (natural protein)
chain: KSTTPKKITPNVTFCDENAKEPENALDKLFSSEQQASILHVLNTASTKELEAFRLLRGRRSINIVEHRENFGPFQNLESLMNVPLFKYKSTVQVCNSILCPKTGREKRKSPENRFLRKLLKPDIERERLKAVNSIISIVFGTRRIAWAHLDRKLTVLDWQQSDRWSLMRGIYSSSVYLEEISSIISKMPKADFYVLEKTGLSIQNSSLFPILLHFHIMEAMLYALLNKTFAQDGQHQVLSMNRNAVGKHFELMIGDSRTSGKELVKQFLFDSILKADPRVFFPSDKIVHYRQMFLSTELQRVEELYDSLLQAIAFYELAVFDSQP
modifications: 32P-labeled
- cross-linking efficiency (610Bpa-mtRNAP (human)): 30%

B5: WT TEFM (human mitochondrial transcription elongation factor) (natural protein, UniProt Q96QE5 36-360, looked up)
chain: B4 chain
- stoichiometry N (SEC): 2

The next lines start with results.

- cross-linking efficiency [1]: > 30%
Molecule: Bpa310 TEFM (from UniProt Q96QE5 36-360) (natural protein)

- cross-linking efficiency [1]: > 30%
Molecule: Bpa312 TEFM (from UniProt Q96QE5 36-360) (natural protein)

- binding result [2]: binds
B1: Δ135 TEFM (CTD with the inter-domain linker, residues 136-360) (domain or fragment, human, UniProt Q96QE5 136-360, looked up)
chain: PKTGREKRKSPENRFLRKLLKPDIERERLKAVNSIISIVFGTRRIAWAHLDRKLTVLDWQQSDRWSLMRGIYSSSVYLEEISSIISKMPKADFYVLEKTGLSIQNSSLFPILLHFHIMEAMLYALLNKTFAQDGQHQVLSMNRNAVGKHFELMIGDSRTSGKELVKQFLFDSILKADPRVFFPSDKIVHYRQMFLSTELQRVEELYDSLLQAIAFYELAVFDSQP
- binding result (crystal structure): binds
